Consider 3 compounds from PMC8188256 (Data in Brief, 2021).

Values joined by “and” are separate entries in the source; they are usually repeats but may differ in a detail not shown here. Equal values may be shown once.

The target in one experiment is DnaK (Escherichia coli, UniProt P0A6Y8). As to the kind of experiment: biochemical.
The target of experiment [1] is PfHsp70-zLS (Plasmodium falciparum). As to the kind of experiment: SPR.
Experiment [2] concerns the target PfHsp70–1 (Plasmodium falciparum). As to the kind of experiment: SPR. A general note: SPR reads the build-up and loss of mass on a sensor chip optically.
Experiment [3] concerns the target PfHsp70–1LS (Plasmodium falciparum). As to the kind of experiment: SPR.
In experiment [4] the target is Plasmodium falciparum Hsp110 (PfHsp70-z) (Plasmodium falciparum). The experiment is described as follows: SPR.
The target in the next experiment is DnaKLS (E. coli) (UniProt P0A6Y8). The experiment is described as follows: SPR.

DnaJ, sequence (P08622 whole entry): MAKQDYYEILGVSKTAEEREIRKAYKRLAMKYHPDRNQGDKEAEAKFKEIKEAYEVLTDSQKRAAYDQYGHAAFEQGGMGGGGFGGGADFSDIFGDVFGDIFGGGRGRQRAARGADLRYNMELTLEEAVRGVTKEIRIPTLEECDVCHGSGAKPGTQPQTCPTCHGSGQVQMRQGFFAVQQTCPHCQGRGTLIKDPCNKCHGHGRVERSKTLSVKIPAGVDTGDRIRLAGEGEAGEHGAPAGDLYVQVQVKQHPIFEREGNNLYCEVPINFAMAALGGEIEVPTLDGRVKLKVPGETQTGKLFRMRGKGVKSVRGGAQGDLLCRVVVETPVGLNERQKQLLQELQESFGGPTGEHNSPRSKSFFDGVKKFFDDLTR
DnaK, sequence (P0A6Y8 2-638): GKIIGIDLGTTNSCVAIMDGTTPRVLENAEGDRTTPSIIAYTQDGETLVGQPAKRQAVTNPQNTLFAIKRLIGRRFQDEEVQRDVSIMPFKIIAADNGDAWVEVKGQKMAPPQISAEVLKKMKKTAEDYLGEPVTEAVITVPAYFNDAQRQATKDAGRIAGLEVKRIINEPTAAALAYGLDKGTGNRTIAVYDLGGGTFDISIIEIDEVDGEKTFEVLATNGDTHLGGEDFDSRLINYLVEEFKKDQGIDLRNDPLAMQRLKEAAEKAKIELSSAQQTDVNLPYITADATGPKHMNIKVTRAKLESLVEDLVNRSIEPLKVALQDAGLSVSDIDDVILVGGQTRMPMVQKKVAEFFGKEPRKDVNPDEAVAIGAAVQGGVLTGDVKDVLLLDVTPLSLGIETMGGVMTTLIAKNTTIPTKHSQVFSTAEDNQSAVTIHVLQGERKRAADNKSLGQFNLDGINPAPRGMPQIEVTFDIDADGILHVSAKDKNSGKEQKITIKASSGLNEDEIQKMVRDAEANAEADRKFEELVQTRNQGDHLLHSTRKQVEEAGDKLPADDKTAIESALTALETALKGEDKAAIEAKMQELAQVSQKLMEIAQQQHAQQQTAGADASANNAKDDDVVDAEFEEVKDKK

What is called Kd is the concentration at which binding is half-saturated. The low end stands for higher affinity, the high end for lower affinity. In the case of `Nc1ncnc2c1ncn2[C@@H]1O[C@H](COP(=O)(O)OP(=O)(O)OP(=O)(O)O)[C@@H](O)[C@H]1O` [ATP], the equilibrium dissociation constant (Kd) at DnaK came out at 398 nM.
A word on the kon: it is the second-order rate constant of association. High values mean fast association, low ones slow association. A word on the koff: it is the first-order rate constant of dissociation. A low value points to slow dissociation. With PfHsp40 (natural protein), the kon in experiment [1] was 9020 M⁻¹ s⁻¹ and 6170 M⁻¹ s⁻¹ and 7250 M⁻¹ s⁻¹; in experiment [3], 6040 M⁻¹ s⁻¹ and 2200 M⁻¹ s⁻¹ and 6140 M⁻¹ s⁻¹. The koff in experiment [2] was 0.0815 s⁻¹ and 0.0866 s⁻¹ and 0.0361 s⁻¹; in experiment [4], 0.0713 s⁻¹ and 0.0396 s⁻¹ and 0.0369 s⁻¹.
Take “DnaJ (from UniProt P08622 1-376) (natural protein)”: the koff with DnaKLS (E. coli) was 0.0676 s⁻¹ and 0.0732 s⁻¹ and 0.0522 s⁻¹.
